The supplement of paper PMC9233669
This sample holds only a part of the variants without activity.

Experiments:
[1] = system: biotinyl-Leu-oxazolone; assay: self-aminoacylation, catalytic enhancement (BLO) (fold over background); higher = more active; k-Seq, kA / k0A0; sequences stand for … in GGGAAUGGAUCCACAUCUACGAAUUC…UUCACUGCAGACUUGACGAAGCUG
Method in brief: (§1)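 Mutagenized RNA pools with a 21-nt variable region (0.43 μM) were reacted with each biotinyl-aminoacyl-oxazolone at 2–1250 μM for 90 minutes at room temperature, in 50 μL HEPES/NaCl/KCl/MgCl2/CaCl2 buffer containing 5% acetonitrile at pH 6.9–7.0. RNA captured on streptavidin was quantified by triplicate qPCR and by Illumina sequencing. The fraction reacted for each sequence was fit to a pseudo-first-order model with bootstrapping, and catalytic enhancement is the median kA divided by the uncatalyzed rate, taken as the low-activity peak of a bimodal Gaussian fit.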

[2] = system: biotinyl-Val-oxazolone; assay: self-aminoacylation, catalytic enhancement (BVO) (fold over background); higher = more active; k-Seq, kA / k0A0; sequences stand for … in GGGAAUGGAUCCACAUCUACGAAUUC…UUCACUGCAGACUUGACGAAGCUG
Method in brief: as §1

[3] = system: biotinyl-Ile-oxazolone; assay: self-aminoacylation, catalytic enhancement (BIO) (fold over background); higher = more active; k-Seq, kA / k0A0; sequences stand for … in GGGAAUGGAUCCACAUCUACGAAUUC…UUCACUGCAGACUUGACGAAGCUG
Method in brief: as §1

[4] = system: biotinyl-Phe-oxazolone; assay: self-aminoacylation, catalytic enhancement (BFO) (fold over background); higher = more active; k-Seq, kA / k0A0; sequences stand for … in GGGAAUGGAUCCACAUCUACGAAUUC…UUCACUGCAGACUUGACGAAGCUG
Method in brief: as §1

[5] = system: biotinyl-Trp-oxazolone; assay: self-aminoacylation, catalytic enhancement (BWO) (fold over background); higher = more active; k-Seq, kA / k0A0; sequences stand for … in GGGAAUGGAUCCACAUCUACGAAUUC…UUCACUGCAGACUUGACGAAGCUG
Method in brief: as §1

[6] = system: biotinyl-Met-oxazolone; assay: self-aminoacylation, catalytic enhancement (BMO) (fold over background); higher = more active; k-Seq, kA / k0A0; sequences stand for … in GGGAAUGGAUCCACAUCUACGAAUUC…UUCACUGCAGACUUGACGAAGCUG
Method in brief: as §1

“AUUCACCUAAGUCAUCGGCUG [Fam2.2 aminoacylation ribozyme variant]” was tested, and the self-aminoacylation [1] was 1.63, the self-aminoacylation [2] was 1.58 and the self-aminoacylation [3] was 1.52. For the same sequence, the self-aminoacylation [4] was 5.86, the self-aminoacylation [5] was 0.999 and the self-aminoacylation [6] was 1.55.

“AUUCACCUAAGUCAUCGGGAG [Fam2.2 aminoacylation ribozyme variant]” showed a self-aminoacylation [1] of 1.81, a self-aminoacylation [2] of 1.49 and a self-aminoacylation [3] of 1.07. For the same sequence, the self-aminoacylation [4] was 0.578, the self-aminoacylation [5] was 1.14 and the self-aminoacylation [6] was 1.2.

For “AUUCACCUAAGUCAUCGGGCG [Fam2.2 aminoacylation ribozyme variant]”, the self-aminoacylation [1] was 4.95, the self-aminoacylation [2] was 2.53 and the self-aminoacylation [3] was 2.63. The self-aminoacylation [4] was 9.59, the self-aminoacylation [5] was 2.51 and the self-aminoacylation [6] was 2.83.

For “AUUCACCUACGUCAUAGGGUG [Fam2.2 aminoacylation ribozyme variant]”, the self-aminoacylation [1] was 1.02, the self-aminoacylation [2] was 0.933 and the self-aminoacylation [3] was 0.915. The self-aminoacylation [4] was 0.864, the self-aminoacylation [5] was 0.634 and the self-aminoacylation [6] was 1.34.

Sequence “AUUCACCUACGUCAUCGCGUG [Fam2.2 aminoacylation ribozyme variant]” has a self-aminoacylation [1] of 14.1, a self-aminoacylation [2] of 5.93 and a self-aminoacylation [3] of 5.7. It also gave a self-aminoacylation [4] of 83.5, a self-aminoacylation [5] of 9.63 and a self-aminoacylation [6] of 10.3.

“AUUCACCUACGUCAUCGGGUC [Fam2.2 aminoacylation ribozyme variant]” was tested, and the self-aminoacylation [1] was 1.36, the self-aminoacylation [2] was 1.21 and the self-aminoacylation [3] was 1.17. The self-aminoacylation [4] was 4.31, the self-aminoacylation [5] was 0.963 and the self-aminoacylation [6] was 1.25.

Sequence “AUUCACCUACGUCAUCGGGUG [Fam2.2 aminoacylation ribozyme variant]” has a self-aminoacylation [1] of 6.98, a self-aminoacylation [2] of 3.38 and a self-aminoacylation [3] of 3.24. The self-aminoacylation [4] was 36.7, the self-aminoacylation [5] was 4.79 and the self-aminoacylation [6] was 5.27.

“AUUCACCUACGUGAUCGGGUG [Fam2.2 aminoacylation ribozyme variant]” was tested, and the self-aminoacylation [1] was 3.64, the self-aminoacylation [2] was 2 and the self-aminoacylation [3] was 2.19. For the same sequence, the self-aminoacylation [4] was 20.2, the self-aminoacylation [5] was 3.44 and the self-aminoacylation [6] was 2.81.

With “AUUCACCUAGAUCAUCGCGUG [Fam2.2 aminoacylation ribozyme variant]” the self-aminoacylation [1] was 8.58, the self-aminoacylation [2] was 3.69 and the self-aminoacylation [3] was 3.85. It also gave a self-aminoacylation [4] of 48.1, a self-aminoacylation [5] of 5.99 and a self-aminoacylation [6] of 5.82.

“AUUCACCUAGAUCAUCGGUUG [Fam2.2 aminoacylation ribozyme variant]” was tested, and the self-aminoacylation [1] was 0.786, the self-aminoacylation [2] was 0.983 and the self-aminoacylation [3] was 0.794. For the same sequence, the self-aminoacylation [4] was 0.463, the self-aminoacylation [5] was 0.447 and the self-aminoacylation [6] was 0.778.

Sequence “AUUCACCUAGAUCAUCUGGUG [Fam2.2 aminoacylation ribozyme variant]” has a self-aminoacylation [1] of 2.82, a self-aminoacylation [2] of 1.73 and a self-aminoacylation [3] of 1.71. For the same sequence, the self-aminoacylation [4] was 14.8, the self-aminoacylation [5] was 2.21 and the self-aminoacylation [6] was 2.39.

“AUUCACCUAGAUCAUGGGGUG [Fam2.2 aminoacylation ribozyme variant]” was tested, and the self-aminoacylation [1] was 6.83, the self-aminoacylation [2] was 2.61 and the self-aminoacylation [3] was 3.07. The self-aminoacylation [4] was 31.5, the self-aminoacylation [5] was 4.68 and the self-aminoacylation [6] was 5.3.

“AUUCACCUAGAUCCUCGGGUG [Fam2.2 aminoacylation ribozyme variant]” gave a self-aminoacylation [1] of 4.04, a self-aminoacylation [2] of 1.99 and a self-aminoacylation [3] of 2.22. The self-aminoacylation [4] was 22.6, the self-aminoacylation [5] was 3.16 and the self-aminoacylation [6] was 3.57.

“AUUCACCUAGAUCGUCGGGUG [Fam2.2 aminoacylation ribozyme variant]” showed a self-aminoacylation [1] of 1.3, a self-aminoacylation [2] of 1.38 and a self-aminoacylation [3] of 1.14. The self-aminoacylation [4] was 3.8, the self-aminoacylation [5] was 0.967 and the self-aminoacylation [6] was 1.06.

“AUUCACCUAGCUCAACGGGUG [Fam2.2 aminoacylation ribozyme variant]” showed a self-aminoacylation [1] of 2.28, a self-aminoacylation [2] of 1.36 and a self-aminoacylation [3] of 1.37. For the same sequence, the self-aminoacylation [4] was 6.75, the self-aminoacylation [5] was 1.95 and the self-aminoacylation [6] was 1.88.

Work on “AUUCACCUAGCUCAUCCGGUG [Fam2.2 aminoacylation ribozyme variant]” yielded a self-aminoacylation [1] of 3.7, a self-aminoacylation [2] of 2.51 and a self-aminoacylation [3] of 2.45. It also gave a self-aminoacylation [4] of 16.5, a self-aminoacylation [5] of 3.68 and a self-aminoacylation [6] of 3.18.

Work on “AUUCACCUAGCUCAUCGAGUG [Fam2.2 aminoacylation ribozyme variant]” yielded a self-aminoacylation [1] of 0.548, a self-aminoacylation [2] of 0.791 and a self-aminoacylation [3] of 0.7. The self-aminoacylation [4] was 0.417, the self-aminoacylation [5] was 0.394 and the self-aminoacylation [6] was 0.652.

“AUUCACCUAGCUCAUCGGUUG [Fam2.2 aminoacylation ribozyme variant]” showed a self-aminoacylation [1] of 0.861, a self-aminoacylation [2] of 0.845 and a self-aminoacylation [3] of 0.978. The self-aminoacylation [4] was 0.258, the self-aminoacylation [5] was 0.533 and the self-aminoacylation [6] was 0.921.

Sequence “AUUCACCUAGCUCAUUGGGUG [Fam2.2 aminoacylation ribozyme variant]” has a self-aminoacylation [1] of 1.62, a self-aminoacylation [2] of 1.69 and a self-aminoacylation [3] of 1.44. For the same sequence, the self-aminoacylation [4] was 5.14, the self-aminoacylation [5] was 2.07 and the self-aminoacylation [6] was 1.89.

“AUUCACCUAGCUCUUCGGGUG [Fam2.2 aminoacylation ribozyme variant]” gave a self-aminoacylation [1] of 2.62, a self-aminoacylation [2] of 2.42 and a self-aminoacylation [3] of 2.08. For the same sequence, the self-aminoacylation [4] was 10.9, the self-aminoacylation [5] was 2.74 and the self-aminoacylation [6] was 2.25.

Work on “AUUCACCUAGGAAAUCGGGUG [Fam2.2 aminoacylation ribozyme variant]” yielded a self-aminoacylation [1] of 8.95, a self-aminoacylation [2] of 3.5 and a self-aminoacylation [3] of 4.03. The self-aminoacylation [4] was 53, the self-aminoacylation [5] was 5.87 and the self-aminoacylation [6] was 6.99.

“AUUCACCUAGGACAUCCGGUG [Fam2.2 aminoacylation ribozyme variant]” gave a self-aminoacylation [1] of 6, a self-aminoacylation [2] of 6.22 and a self-aminoacylation [3] of 7.62. The self-aminoacylation [4] was 31, the self-aminoacylation [5] was 4.47 and the self-aminoacylation [6] was 5.98.

For “AUUCACCUAGGACAUCGCGUG [Fam2.2 aminoacylation ribozyme variant]”, the self-aminoacylation [1] was 4.57, the self-aminoacylation [2] was 2.83 and the self-aminoacylation [3] was 2.53. The self-aminoacylation [4] was 26.8, the self-aminoacylation [5] was 3.99 and the self-aminoacylation [6] was 3.57.

Work on “AUUCACCUAGGACAUCUGGUG [Fam2.2 aminoacylation ribozyme variant]” yielded a self-aminoacylation [1] of 2.13, a self-aminoacylation [2] of 1.72 and a self-aminoacylation [3] of 2.02. For the same sequence, the self-aminoacylation [4] was 8.71, the self-aminoacylation [5] was 2.13 and the self-aminoacylation [6] was 2.13.

Sequence “AUUCACCUAGGACAUUGGGUG [Fam2.2 aminoacylation ribozyme variant]” has a self-aminoacylation [1] of 4, a self-aminoacylation [2] of 2.28 and a self-aminoacylation [3] of 2.24. It also gave a self-aminoacylation [4] of 25.8, a self-aminoacylation [5] of 2.79 and a self-aminoacylation [6] of 3.42.
